Experimental data taken from article PMC3713010, “Sox2 Transcriptionally Regulates Pqbp1, an Intellectual Disability-Microcephaly Causative Gene, in Neural Stem Progenitor Cells”.

T1: Oct6 DNA-binding domain (BD-Oct6) (Mus musculus (B6), UniProt P21952 317-416)
T1 sequence: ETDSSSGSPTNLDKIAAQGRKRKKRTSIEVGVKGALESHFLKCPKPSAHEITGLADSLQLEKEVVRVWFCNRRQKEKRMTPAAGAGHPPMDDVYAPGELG

T2: Brn2 DNA-binding domain (BD-Brn2) (Mus musculus (B6), UniProt P31360 336-435)
T2 sequence: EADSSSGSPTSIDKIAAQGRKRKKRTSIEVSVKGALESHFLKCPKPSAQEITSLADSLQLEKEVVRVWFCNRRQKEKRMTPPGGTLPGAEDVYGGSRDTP


Legend:
Experiment in all cases: EMSA; 10% glycerol, 20 mM HEPES pH 7.8, 45 mM KCl, 10 mM NaCl, 1 mM EDTA, 1 mM DTT, 0.2 ug/uL BSA, 0.1% NP-40, 50 ng poly-dIdC; 20 ng each GST protein; room temperature 30 min (heterodimers 4 C); 6% PAGE 0.25x TBE
Settings in all cases: protein: recombinant; tags: GST (N-terminal, pGEX-6P-1); label: 32P-dCTP fill-in of the 5' (dG)5 overhangs of both strands (Methods; control probes are given with GGG)
[1] = molecular target: T1, Oct6 DNA-binding domain (BD-Oct6)
Procedure, shortened: (§1)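 GST-tagged transcription factor DNA-binding domains were made in E. coli BL21 and purified on glutathione-sepharose. They were tested against candidate cis-element oligonucleotides, annealed and labelled with 32P-dCTP. Each protein (20 ng) was mixed with 40,000–50,000 cpm probe and 50 ng poly-dIdC in HEPES/KCl glycerol buffer with BSA and detergent for 30 min at room temperature. Samples were resolved on 6% polyacrylamide in 0.25×TBE at 4°C. DNA binding was scored as band radioactivity in the expected shift region, measured on a BAS4000 imager.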

[2] = molecular target: T2, Brn2 DNA-binding domain (BD-Brn2)
Procedure, shortened: as §1

[3] = molecular target: Pax6 DNA-binding domain (BD-Pax6) (Mus musculus (B6), UniProt P63015 190-289)
Chain of Pax6 DNA-binding domain (BD-Pax6) (P63015 190-289): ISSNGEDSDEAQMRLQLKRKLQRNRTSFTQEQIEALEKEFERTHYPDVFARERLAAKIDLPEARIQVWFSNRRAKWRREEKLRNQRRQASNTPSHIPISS
Procedure, shortened: as §1

| Binder | binding result [1] | binding result [2] | binding result [3] |
| --- | --- | --- | --- |
| 99 (dsDNA) DNA 1: GGGGGATATAACAAGATAATCATTGTTTTGAATATTCCAAGGATTTCCCCC DNA 2: GGGGGAAATCCTTGGAATATTCAAAACAATGATTATCTTGTTATATCCCCC | binds | binds | binds |
| 95 (dsDNA) DNA 1: GGGGGGGTTTTCTTTTGTACACTTAATATCCGCTGGGGCCCCC DNA 2: GGGGGCCCCAGCGGATATTAAGTGTACAAAAGAAAACCCCCCC | binds | no binding | binds |
| 98 (dsDNA) DNA 1: GGGGGTTATGAATACAATTCATTATAACCATGGATCCCCC DNA 2: GGGGGATCCATGGTTATAATGAATTGTATTCATAACCCCC | binds | binds | no binding |
| 93 (dsDNA) DNA 1: GGGGGATAGAGGCACAAAAATTTCCAGAGACTGGCCCCC DNA 2: GGGGGCCAGTCTCTGGAAATTTTTGTGCCTCTATCCCCC | no binding | no binding | no binding |
| 92 (dsDNA) DNA 1: GGGGGATATAATAATAAATCTTTAAAACAAAAAAAAAAACCCCC DNA 2: GGGGGTTTTTTTTTTTGTTTTAAAGATTTATTATTATATCCCCC | binds | binds | binds |
| 96 (dsDNA) DNA 1: GGGGGACATAGACACAAATAGCAGACAATGACCTTGACCCCC DNA 2: GGGGGTCAAGGTCATTGTCTGCTATTTGTGTCTATGTCCCCC | no binding | no binding | no binding |
| 94 (dsDNA) DNA 1: GGGGGATCTGTAAAGGAAATTACTTTGTAGGAAATTTGATGGAACTGCCCCC DNA 2: GGGGGCAGTTCCATCAAATTTCCTACAAAGTAATTTCCTTTACAGATCCCCC | binds | binds | binds |
| 97 (dsDNA) DNA 1: GGGGGTAGATGCTACAAAAGATACTGATTAAAACCCAAATGCCCCC DNA 2: GGGGGCATTTGGGTTTTAATCAGTATCTTTTGTAGCATCTACCCCC | binds | binds | binds |
